The conditions of the data set: Hordeum vulgare; pH 6.3; 25 °C; GdnHCl; Fluorescence; MES 50 mM; whole UniProt chain shown.

The source of these data is FireProtDB (doi:10.1021/bi00017a003).

B1: Subtilisin-chymotrypsin inhibitor-2A wild type, P01053 (protein)
chain: MSSVEKKPEGVNTGAGDRHNLKTEWPELVGKSVEEAKKVILQDKPEAQIIVLPVGTIVTMEYRIDRVRLFVDKLDNIAQVPRVG
B1: the denaturant m value is 1.9 kcal/mol/M and the “denaturant midpoint (higher = more stable)” value amounted to 4 M.
